Reference: patent publication US20170081400A1 (CEPHALON, published 2017)
Substitutions are numbered along the chain they refer to.

B1: 320-443 (antibody, human IgG1, name in Kabat numbering, V domains shown)
VH: QVQLVQSGAEVKKPGASVKVSCKASGYTFTSKDINWVRQAPGQGLEWMGWLNPNSGNTGYAQKFQGRVTMTADRSTSTAYMELSSLRSEDTAVYYCAREVPETAAFEYWGQGTLVTVSS
VL: QSVLTQPPSVSGAPGQRVTISCTSSSSDIGAGLGVHWYQQLPGTAPKLLIEGYYNRPSGVPDRFSGSKSGTSASLTITGLLPEDEGDYYCQSYDGTLSALFGGGTKLTVLG
notes: human IgG1, lambda
B2: 320-459 (antibody, human IgG1, name in Kabat numbering, V domains shown)
VH: B1 VH with K32Y, I34K
VL: B1 VL
notes: human IgG1, lambda
B3: 320-469 (antibody, human IgG1, name in Kabat numbering, V domains shown)
VH: B1 VH with K32Y, N35L
VL: B1 VL
notes: human IgG1, lambda
B4: 320-491 (antibody, human IgG1, name in Kabat numbering, V domains shown)
VH: B1 VH with K32Y, L51S
VL: B1 VL
notes: human IgG1, lambda
B5: 320-480 (antibody, human IgG1, name in Kabat numbering, V domains shown)
VH: B1 VH with K32Y, A61Y
VL: B1 VL
notes: human IgG1, lambda
B6: 320-445 (antibody, human IgG1, name in Kabat numbering, V domains shown)
VH: B1 VH with K32W
VL: B1 VL
notes: human IgG1, lambda
B7: 320-466 (antibody, human IgG1, name in Kabat numbering, V domains shown)
VH: B1 VH with K32Y, N35D
VL: B1 VL
notes: human IgG1, lambda
B8: 320-465 (antibody, human IgG1, name in Kabat numbering, V domains shown)
VH: B1 VH with K32Y, N35Q
VL: B1 VL
notes: human IgG1, lambda
B9: 320-461 (antibody, human IgG1, name in Kabat numbering, V domains shown)
VH: B1 VH with K32Y, I34W
VL: B1 VL
notes: human IgG1, lambda
B10: 320-473 (antibody, human IgG1, name in Kabat numbering, V domains shown)
VH: B1 VH with K32Y
VL: B1 VL with Y93D
notes: human IgG1, lambda
B11: 320-467 (antibody, human IgG1, name in Kabat numbering, V domains shown)
VH: B1 VH with K32Y, N35H
VL: B1 VL
notes: human IgG1, lambda
B12: 320-464 (antibody, human IgG1, name in Kabat numbering, V domains shown)
VH: B1 VH with K32Y, N35S
VL: B1 VL
notes: human IgG1, lambda
B13: 320-458 (antibody, human IgG1, name in Kabat numbering, V domains shown)
VH: B1 VH with K32Y, I34H
VL: B1 VL
notes: human IgG1, lambda
B14: 320-460 (antibody, human IgG1, name in Kabat numbering, V domains shown)
VH: B1 VH with K32Y, I34L
VL: B1 VL
notes: human IgG1, lambda
B15: 320-478 (antibody, human IgG1, name in Kabat numbering, V domains shown)
VH: B1 VH with K32Y, A61L
VL: B1 VL
notes: human IgG1, lambda
B16: 320-462 (antibody, human IgG1, name in Kabat numbering, V domains shown)
VH: B1 VH with K32Y, I34Y
VL: B1 VL
notes: human IgG1, lambda
B17: 320-479 (antibody, human IgG1, name in Kabat numbering, V domains shown)
VH: B1 VH with K32Y, A61W
VL: B1 VL
notes: human IgG1, lambda
B18: 320-463 (antibody, human IgG1, name in Kabat numbering, V domains shown)
VH: B1 VH with K32Y, N35A
VL: B1 VL
notes: human IgG1, lambda
B19: 320-477 (antibody, human IgG1, name in Kabat numbering, V domains shown)
VH: B1 VH with S31H, K32Y
VL: B1 VL
notes: human IgG1, lambda
B20: 320-490 (antibody, human IgG1, name in Kabat numbering, V domains shown)
VH: B1 VH with K32Y, W50Y
VL: B1 VL
notes: human IgG1, lambda
B21: 320-476 (antibody, human IgG1, name in Kabat numbering, V domains shown)
VH: B1 VH with Y27K, K32Y
VL: B1 VL
notes: human IgG1, lambda
B22: 320-472 (antibody, human IgG1, name in Kabat numbering, V domains shown)
VH: B1 VH with K32Y
VL: B1 VL with S92L
notes: human IgG1, lambda
B23: 320-267 (antibody, human IgG1, V domains shown)
VH: B1 VH with K32Y
VL: B1 VL with G32A

molecular target: T1, human TL1A extracellular domain with N-terminal HIS and FLAG tag (human, UniProt O95150 72-251); experiment: SPR Run 6, purified Ab captured on Protein A, TL1A 5 ug/mL, timepoint 170
T1 construct: the whole entry is named
T1 sequence: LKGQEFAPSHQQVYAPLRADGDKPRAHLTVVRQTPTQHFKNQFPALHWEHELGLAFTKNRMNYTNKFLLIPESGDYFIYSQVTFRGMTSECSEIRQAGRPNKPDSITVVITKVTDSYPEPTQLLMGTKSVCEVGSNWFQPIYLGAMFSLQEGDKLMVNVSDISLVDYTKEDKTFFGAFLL
Excerpt: (§1) 1.5. Antibody expression and antigen binding as determined by SPR. Using a CM5 sensor chip (GE Healthcare) Protein A (Pierce) was coupled to the chip surface using an amine coupling kit (GE Healthcare). Protein A was coupled on flow cell 1 and 2 (or alternatively 3 and 4) using a BIACORE® T200. […] The amount of supernatant or purified protein (as well as the concentration) injected during the capture stage varied between runs and is specified in the header of the Tables 3-11. At the end of injection of the supernatant or purified antibody the change in response units was measured. This value was reported as Capture Level in Tables 3-11. […] The response units were measured prior to the end of the dissociation phase. […] The sensorgrams were double referenced (flow cell 2 is subtracted from flow cell 1 and a buffer blank). As there were a large number of antibody variants to screen, these were screened across different runs (Tables 3-11). […] A summary of the conditions used in each run is below:
(§2) 2.1. […] In some experiment the antibodies were purified using Protein A chromatography (See 1.4) and purified antibodies were used in BIACORE® (GE Healthcare) experiments.

In order of rising “TL1A Binding Level (Late)” value:
1. B20  8 RU
2. B22  10 RU
3. B2  17 RU
4. B11  24 RU
5. B16  52 RU
6. B13  53 RU
7. B17  54 RU
8. B10  55 RU
9. B3  61 RU
10. B5  73 RU
11. B4  76 RU
12. B15  77 RU
13. B8  78 RU
14. B9  82 RU
15. B7  86 RU
16. B18  101 RU
17. B1  103 RU
18. B14  105 RU
19. B6  106 RU
20. B21  118 RU
21. B12  124 RU
22. B19  136 RU

molecular target: T1, human TL1A extracellular domain with …; experiment: SPR Run 6, purified Ab captured on Protein A, TL1A 5 ug/mL, timepoint 44
Excerpt: as §1, §2

In order of falling “TL1A Binding Level (Early)” value:
1. B19  148 RU
2. B12  130 RU
3. B21  128 RU
4. B6  116 RU
5. B1  114 RU
6. B14  114 RU
7. B18  102 RU
8. B7  93 RU
9. B8  92 RU
10. B9  87 RU
11. B4  85 RU
12. B15  85 RU
13. B5  79 RU
14. B3  69 RU
15. B10  69 RU
16. B17  61 RU
17. B13  59 RU
18. B16  58 RU
19. B11  44 RU
20. B22  23 RU
21. B2  20 RU
22. B20  14 RU

molecular target: T2, human TL1A extracellular domain with N-terminal HIS and FLAG tag (human, UniProt O95150 72-251); experiment: cell-based or functional assay
T2 sequence: T1 sequence

With B23 the “Antibody IC50, TL1A induced caspase potency assay in TF-1 cells” value was 0.01 mg/L.

With B23 the “Fold improvement over 320-179, TL1A induced caspase potency assay in TF-1 cells” value was 4 fold.

molecular target: T3, human TL1A extracellular domain with N-terminal HIS and FLAG tag (human) (UniProt O95150); experiment: cell-based or functional assay
T3 sequence: T1 sequence

In order of rising Antibody IC50, TL1A induced caspase potency assay in TF-1 cells:
1. B18  0.02 mg/L
2. B6  0.03 mg/L
3. B12  0.03 mg/L
4. B19  0.03 mg/L
5. B1  0.06 mg/L

In order of rising Fold improvement over 320-179, TL1A induced caspase potency assay in TF-1 cells:
1. B1  1 fold
2. B19  1 fold
3. B6  2 fold
4. B12  2 fold
5. B18  3 fold
